The subject of this experiment is p2-encoded leu2*. As to the kind of experiment: p2 leu2* fluctuation tests in GA-Y021 (p2 mutation rate reporter strain). Particulars: for Per-base substitution rate pf p2: TP-DNAP2 variant in trans, wt TP-DNAP2 in cis, 36 replicates, (95% C.I.); for Fold increase: p2 substitution rate over no variant in trans. The experiment is classed as cell-based, S. cerevisiae. From the text: For fluctuation tests used to measure p2 mutation rates, leu2* served as a marker for detecting mutational events. leu2* is a disabled version of LEU2, where Q180 is replaced with a TAA stop codon. Q180 is a permissive site where mutation to any other codon other than TAG and TGA results in functional reversion to LEU2. These mutational events can be detected by plating scores of parallel cultures on medium lacking leucine and counting the number distribution of functional LEU2 mutants.
For TP-DNAP2 library screening, each library member was subjected to small-scale leu2* fluctuation tests with six replicates. 190 library members from each yeast library transformation were arrayed and inoculated into liquid SC medium lacking uracil and histidine, and passaged three times at 1:10,000 dilutions. mKate2 fluorescence was measured at every passage on a microplate reader (TECAN Infinite® 200 PRO, settings: λex=588, λem=633) to track p2 copy number stabilization. To perform fluctuation tests, each library member was diluted 1:10,000 into liquid SC medium buffered to pH 5.8 and lacking uracil, histidine, tryptophan, and dilutions were split into six 100 μL replicates. Cultures were grown for 48 hours at 30° C. to reach saturation. Saturated cultures were washed with 200 μL 0.9% NaCl to remove residual leucine and resuspended in 35 μL of 0.9% NaCl. 10 μL of this resuspension was spot plated onto solid SC medium buffered to pH 5.8 and lacking uracil, histidine, tryptophan and leucine. Spot plates were allowed to dry and incubated at 30° C. Colonies were counted after 5 days. Colony counts were used to calculate the expected number of LEU2 functional mutants (m), using the p0 method (Foster, 2006, Methods Enzymol, 409:195-213).
To precisely measure p1 and p2 per-base substitution mutation rates, several modifications were made to the small-scale protocol. First, 36 replicates were performed for reconfirmation of candidate TP-DNAP2 mutators, and 48 replicates for genomic and mutual orthogonality experiments. Titers were also determined for each strain after spot plating by pooling the residual volume from 4 replicates and plating dilutions on YPD. The expected number of LEU2 functional mutants (m) was determined by the Ma-Sandri-Sarkar maximum likelihood estimator (as calculated by the FALCOR tool and corrected for partial plating (Foster, 2006, Methods Enzymol, 409:195-213; Sarkar et al., 1992, Genetica, 85:173-179; Hall et al., 2009, Bioinformatics, 25:1564-1565). The mean mKate2 fluorescence was determined from 50,000 event counts on Attune™ NxT Flow Cytometer and converted to p2 copy number by using a calibration curve. To determine per-base substitution rates, the corrected m was normalized to the average cell titer, the p2 copy number, and the target size for functional leu2* reversion (2.33 bp). 95% confidence intervals were similarly scaled.
To identify error-prone TP-DNAP2s, a small library of TP-DNAP2s diversified at locations hypothesized to be responsible for DNAP fidelity was screened. […] Four distinct site-saturation mutagenesis libraries were generated, each diversifying S370, Y424, L474, or F882 in TP-DNAP2 encoded on pGA55-reTP-DNAP2. Due to unsuccessful attempts to generate a strain with a full deletion of p2-encoded TP-DNAP2 and simultaneous integration of mKate, URA3, and leu2*, each library was transformed into GA-Y021 for convenient screening. However, since GA-Y021 still encodes wt TP-DNAP2 on p2-delORF1-mUL*, p2 mutation rates measured in this format are the result of in tandem replication of p2 by wt TP-DNAP2 and each TP-DNAP2 variant encoded in trans. 6-fold coverage of each library was maintained by picking 190 yeast colonies and passaging under selection for URA3 to stabilize the copy number of p2-delORF1-mUL* in the presence of the newly introduced TP-DNAP2 variants. […]

Consider four molecules from patent US20230242902A1, “A HIGHLY ERROR-PRONE […] R[…] FOR TARGETED CONTINUOUS EVOLUTION IN VIVO” (The Regents of the University of California, priority 2017, published 2023).

B1: S370P: TP-DNAP2 variant (protein, listed as Kluyveromyces lactis)
chain: MNDELAFLNSQIDDYSDDIEFLRTEVFRINRYSKSIYSLMKNSSKEAIKETIEFNKYGQEIHSKIKEKEISLIEAIKLMEKKYKYLRSLNKTKDKSKKKKIHTKDIETLKTIYKTKADFDIRNFKNAETFTYENYSLLIPSEKELIDLIPEIEEDYSYYFYVSLTITGPTIFGGVTRKVPIIDTYGDINKDFYNKIKENITKVLDRVPFYEEKESEIICKKVLITLTVNKWESIDKWYKNVKSKSKKFKDFTLFLASDTSKNCVQQCVEYLGGKWNTNYSLEKMIPQQKIVTYIPLLMDIQYVQSMEDLISDFDEPNTDCKNIARLLKWNGHMGVITKIDKDVKINRIQRKRIIDVENKEVKEVFFDIEPFSDETKHQIPYLICWSYLGELYYRTGKNCIKEFVEEILSYNVDIILYAWYGSGYDYQHVLPYMKSKCIKDKYIIKNNMITYGELYYENAIIYLKDPYLFILTSLDKASKAFNVINKGEFPHSIIHSWEDLNKILPNWVKIQKRMIEYKDDNKLNIYYKNIEIFENDRNYNTILENAIEYCKVDVLAMEKVWIKFKKLLEKNLNITVSVKTFTLSQLSMKIMESKLPKYVKLYVPTLEEYSKIRNAIYGGRVISKNGIYEENIVYADVVSLYPSAMKLLKHSYGKPKLVDYIDFEKHGIYRVTLLNKHDQEPKNYLNFVPRRINRKLTWEWFKIHEGWYHTYDLIIAKSEGFDIYCHEGFEYPEKDYIFNDFIDTLYSMKETHTACSCEEQPCPIRMVAKIALNGGGYGKFVQKPIDKEIYIVKRDVVAGECDKLQENENGEICIGKRLVKRPLFYNLDSENYDKMIIEKEDEPIYSTQCGISILSASRYRLYKLCKQFENIDIIYSDTDSIFVKQKSVDWELFKSKCGSELGQLDSTIDDTKNAIISKMYIGGAKMYAFEYLNNKNKLITKLHCKGVPNYMLSLNQFKYLMESPDNTIAYKFEIIRRKLVNVITKDLIKDIKQT
B1: the “Per-base substitution rate pf p2” value is reported as 50.1 (32.4-70.4) ×10^−10 and the Fold increase came to 8.4.

B2: S370K: TP-DNAP2 variant (protein, listed as Kluyveromyces lactis)
chain: MNDELAFLNSQIDDYSDDIEFLRTEVFRINRYSKSIYSLMKNSSKEAIKETIEFNKYGQEIHSKIKEKEISLIEAIKLMEKKYKYLRSLNKTKDKSKKKKIHTKDIETLKTIYKTKADFDIRNFKNAETFTYENYSLLIPSEKELIDLIPEIEEDYSYYFYVSLTITGPTIFGGVTRKVPIIDTYGDINKDFYNKIKENITKVLDRVPFYEEKESEIICKKVLITLTVNKWESIDKWYKNVKSKSKKFKDFTLFLASDTSKNCVQQCVEYLGGKWNTNYSLEKMIPQQKIVTYIPLLMDIQYVQSMEDLISDFDEPNTDCKNIARLLKWNGHMGVITKIDKDVKINRIQRKRIIDVENKEVKEVFFDIEKFSDETKHQIPYLICWSYLGELYYRTGKNCIKEFVEEILSYNVDIILYAWYGSGYDYQHVLPYMKSKCIKDKYIIKNNMITYGELYYENAIIYLKDPYLFILTSLDKASKAFNVINKGEFPHSIIHSWEDLNKILPNWVKIQKRMIEYKDDNKLNIYYKNIEIFENDRNYNTILENAIEYCKVDVLAMEKVWIKFKKLLEKNLNITVSVKTFTLSQLSMKIMESKLPKYVKLYVPTLEEYSKIRNAIYGGRVISKNGIYEENIVYADVVSLYPSAMKLLKHSYGKPKLVDYIDFEKHGIYRVTLLNKHDQEPKNYLNFVPRRINRKLTWEWFKIHEGWYHTYDLIIAKSEGFDIYCHEGFEYPEKDYIFNDFIDTLYSMKETHTACSCEEQPCPIRMVAKIALNGGGYGKFVQKPIDKEIYIVKRDVVAGECDKLQENENGEICIGKRLVKRPLFYNLDSENYDKMIIEKEDEPIYSTQCGISILSASRYRLYKLCKQFENIDIIYSDTDSIFVKQKSVDWELFKSKCGSELGQLDSTIDDTKNAIISKMYIGGAKMYAFEYLNNKNKLITKLHCKGVPNYMLSLNQFKYLMESPDNTIAYKFEIIRRKLVNVITKDLIKDIKQT
Take B2: the “Per-base substitution rate pf p2” value was 26.2 (18.0-35.4) ×10^−10 and the Fold increase came to 4.4.

B3: S370E: TP-DNAP2 variant (protein, listed as Kluyveromyces lactis)
chain: MNDELAFLNSQIDDYSDDIEFLRTEVFRINRYSKSIYSLMKNSSKEAIKETIEFNKYGQEIHSKIKEKEISLIEAIKLMEKKYKYLRSLNKTKDKSKKKKIHTKDIETLKTIYKTKADFDIRNFKNAETFTYENYSLLIPSEKELIDLIPEIEEDYSYYFYVSLTITGPTIFGGVTRKVPIIDTYGDINKDFYNKIKENITKVLDRVPFYEEKESEIICKKVLITLTVNKWESIDKWYKNVKSKSKKFKDFTLFLASDTSKNCVQQCVEYLGGKWNTNYSLEKMIPQQKIVTYIPLLMDIQYVQSMEDLISDFDEPNTDCKNIARLLKWNGHMGVITKIDKDVKINRIQRKRIIDVENKEVKEVFFDIEEFSDETKHQIPYLICWSYLGELYYRTGKNCIKEFVEEILSYNVDIILYAWYGSGYDYQHVLPYMKSKCIKDKYIIKNNMITYGELYYENAIIYLKDPYLFILTSLDKASKAFNVINKGEFPHSIIHSWEDLNKILPNWVKIQKRMIEYKDDNKLNIYYKNIEIFENDRNYNTILENAIEYCKVDVLAMEKVWIKFKKLLEKNLNITVSVKTFTLSQLSMKIMESKLPKYVKLYVPTLEEYSKIRNAIYGGRVISKNGIYEENIVYADVVSLYPSAMKLLKHSYGKPKLVDYIDFEKHGIYRVTLLNKHDQEPKNYLNFVPRRINRKLTWEWFKIHEGWYHTYDLIIAKSEGFDIYCHEGFEYPEKDYIFNDFIDTLYSMKETHTACSCEEQPCPIRMVAKIALNGGGYGKFVQKPIDKEIYIVKRDVVAGECDKLQENENGEICIGKRLVKRPLFYNLDSENYDKMIIEKEDEPIYSTQCGISILSASRYRLYKLCKQFENIDIIYSDTDSIFVKQKSVDWELFKSKCGSELGQLDSTIDDTKNAIISKMYIGGAKMYAFEYLNNKNKLITKLHCKGVPNYMLSLNQFKYLMESPDNTIAYKFEIIRRKLVNVITKDLIKDIKQT
Regarding B3, the “Per-base substitution rate pf p2” value is given as 27.9 (19.7-37.2) ×10^−10 and the Fold increase worked out at 4.7.

B4: S370R: TP-DNAP2 variant (protein, listed as Kluyveromyces lactis)
chain: MNDELAFLNSQIDDYSDDIEFLRTEVFRINRYSKSIYSLMKNSSKEAIKETIEFNKYGQEIHSKIKEKEISLIEAIKLMEKKYKYLRSLNKTKDKSKKKKIHTKDIETLKTIYKTKADFDIRNFKNAETFTYENYSLLIPSEKELIDLIPEIEEDYSYYFYVSLTITGPTIFGGVTRKVPIIDTYGDINKDFYNKIKENITKVLDRVPFYEEKESEIICKKVLITLTVNKWESIDKWYKNVKSKSKKFKDFTLFLASDTSKNCVQQCVEYLGGKWNTNYSLEKMIPQQKIVTYIPLLMDIQYVQSMEDLISDFDEPNTDCKNIARLLKWNGHMGVITKIDKDVKINRIQRKRIIDVENKEVKEVFFDIERFSDETKHQIPYLICWSYLGELYYRTGKNCIKEFVEEILSYNVDIILYAWYGSGYDYQHVLPYMKSKCIKDKYIIKNNMITYGELYYENAIIYLKDPYLFILTSLDKASKAFNVINKGEFPHSIIHSWEDLNKILPNWVKIQKRMIEYKDDNKLNIYYKNIEIFENDRNYNTILENAIEYCKVDVLAMEKVWIKFKKLLEKNLNITVSVKTFTLSQLSMKIMESKLPKYVKLYVPTLEEYSKIRNAIYGGRVISKNGIYEENIVYADVVSLYPSAMKLLKHSYGKPKLVDYIDFEKHGIYRVTLLNKHDQEPKNYLNFVPRRINRKLTWEWFKIHEGWYHTYDLIIAKSEGFDIYCHEGFEYPEKDYIFNDFIDTLYSMKETHTACSCEEQPCPIRMVAKIALNGGGYGKFVQKPIDKEIYIVKRDVVAGECDKLQENENGEICIGKRLVKRPLFYNLDSENYDKMIIEKEDEPIYSTQCGISILSASRYRLYKLCKQFENIDIIYSDTDSIFVKQKSVDWELFKSKCGSELGQLDSTIDDTKNAIISKMYIGGAKMYAFEYLNNKNKLITKLHCKGVPNYMLSLNQFKYLMESPDNTIAYKFEIIRRKLVNVITKDLIKDIKQT
Take B4: the “Per-base substitution rate pf p2” value is reported as 31.9 (22.4-42.5) ×10^−10 and the Fold increase is 5.3.
